This passage reports Binding affinity (RU) results from patent US20250011363A1, “OPTIMIZED SHORTENED PEPTIDE THAT BINDS TO ACETYLCHOLINE RECEPTOR, AND USE THEREOF” (SKINMED CO., LTD., priority 2021, published 2025).

The test concerns the target acetylcholine receptor. Briefly: SPR, AchR immobilised on chip, peptide 10 uM.

Consider RHTAR [5mer-1135], for which the Binding affinity (RU) turned out to be 17 RU.

Regarding KPHGR [5mer-1146], the Binding affinity (RU) worked out at 23 RU.

Consider RAHVR [5mer-813], for which the Binding affinity (RU) was found to be 21 RU.

RHKDR [5mer-817]: the Binding affinity (RU) amounted to 23 RU.

The molecule KMNIK [5mer-1119] gave a Binding affinity (RU) of 19 RU.

With RYPFK [5mer-1125], the Binding affinity (RU) is 29 RU.

RATGK [5mer-1143] came in with a Binding affinity (RU) of 19 RU.

With RKPIK [5mer-816], the Binding affinity (RU) came to 26 RU.

RMPAK [5mer-1145] yielded a Binding affinity (RU) of 25 RU.

Molecule KATAK [5mer-833] gave a Binding affinity (RU) of 33 RU.

Molecule RHKIR [5mer-1117] came in with a Binding affinity (RU) of 11 RU.

The molecule RMNIK [5mer-834] returned a Binding affinity (RU) of 15 RU.

As to RMDAR [5mer-1118], the Binding affinity (RU) came out at 28 RU.

As to RPDWR [5mer-846], the Binding affinity (RU) was found to be 32 RU.

For the molecule KKPVK [5mer-1124], the Binding affinity (RU) amounted to 30 RU.

The molecule RHSMK [5mer-838] had a Binding affinity (RU) of 13 RU.

KTDPR [5mer-844] had a Binding affinity (RU) of 32 RU.

RKTFR [5mer-1114]: the Binding affinity (RU) turned out to be 28 RU.

In turn, RNEFK [5mer-1140] returned a Binding affinity (RU) of 28 RU.

The molecule KECFR [5mer-1116] showed a Binding affinity (RU) of 24 RU.

Turning to RTTFK [5mer-1112], the Binding affinity (RU) stood at 29 RU.

RKDHR [5mer-815]: the Binding affinity (RU) turned out to be 27 RU.

RHHDK [5mer-839]: the Binding affinity (RU) was 26 RU.

Consider RMHER [5mer-832], for which the Binding affinity (RU) worked out at 18 RU.

RIMHK [5mer-820] came in with a Binding affinity (RU) of 28 RU.

In the case of RHMER [5mer-1113], the Binding affinity (RU) turned out to be 19 RU.

In the case of RFMMR [5mer-835], the Binding affinity (RU) was 14 RU.

As for KTEGR [5mer-812], the Binding affinity (RU) is 27 RU.

On to KTENK [5mer-1142], for which the Binding affinity (RU) worked out at 24 RU.

As for RAKGK [5mer-822], the Binding affinity (RU) was determined as 16 RU.

Regarding RDEKK [5mer-825], the Binding affinity (RU) turned out to be 14 RU.

RPPDR [5mer-1120] displayed a Binding affinity (RU) of 33 RU.

KNSAR [5mer-1136] came in with a Binding affinity (RU) of 25 RU.

Regarding KIDMK [5mer-824], the Binding affinity (RU) was 13 RU.

As for KDTAR [5mer-840], the Binding affinity (RU) stood at 11 RU.

As to KAEHK [5mer-1111], the Binding affinity (RU) worked out at 12 RU.

Take RTCKR [5mer-1134]: the Binding affinity (RU) was 26 RU.

KCWHR [5mer-829] came in with a Binding affinity (RU) of 26 RU.

KNEMR [5mer-841] returned a Binding affinity (RU) of 22 RU.

RIADR [5mer-1127] yielded a Binding affinity (RU) of 16 RU.

With RYEDR [5mer-845], the Binding affinity (RU) worked out at 15 RU.

With RAAGK [5mer-831], the Binding affinity (RU) is 24 RU.

For the molecule REWNR [5mer-836], the Binding affinity (RU) was found to be 15 RU.

KYEKR [5mer-1123] registered a Binding affinity (RU) of 24 RU.

KAKNR [5mer-1144] returned a Binding affinity (RU) of 33 RU.

The molecule RITMR [5mer-814] yielded a Binding affinity (RU) of 11 RU.

Molecule KEEEK [5mer-1137] displayed a Binding affinity (RU) of 22 RU.

Consider RNTIK [5mer-819], for which the Binding affinity (RU) is 19 RU.

RENHK [5mer-1138] showed a Binding affinity (RU) of 24 RU.

In turn, KEPEK [5mer-1115] returned a Binding affinity (RU) of 27 RU.

The molecule RESDR [5mer-821] registered a Binding affinity (RU) of 12 RU.

Regarding RIDGK [5mer-830], the Binding affinity (RU) is 25 RU.

Molecule KTTPK [5mer-843] displayed a Binding affinity (RU) of 17 RU.

Take KPTHK [5mer-1126]: the Binding affinity (RU) was 26 RU.

On to RPMDR [5mer-837], for which the Binding affinity (RU) is 28 RU.

KKAGR [5mer-827] displayed a Binding affinity (RU) of 18 RU.

Turning to KMTMR [5mer-811], the Binding affinity (RU) is 32 RU.

KFDAR [5mer-1129] came in with a Binding affinity (RU) of 14 RU.

For KCSMK [5mer-1133], the Binding affinity (RU) is 23 RU.

As for KHCWK [5mer-1139], the Binding affinity (RU) was found to be 28 RU.

Turning to RNTDR [5mer-1122], the Binding affinity (RU) is 14 RU.

RFKVK [5mer-1121] registered a Binding affinity (RU) of 29 RU.

Turning to RFCWR [5mer-828], the Binding affinity (RU) was found to be 27 RU.

Turning to KCKMK [5mer-826], the Binding affinity (RU) worked out at 11 RU.

Take REWVR [5mer-1128]: the Binding affinity (RU) was 26 RU.

Molecule KECFK [5mer-823] showed a Binding affinity (RU) of 26 RU.

KHWHR [5mer-818]: the Binding affinity (RU) came out at 12 RU.

As for KCDGK [5mer-1131], the Binding affinity (RU) was 14 RU.

RFMVR [5mer-1130] had a Binding affinity (RU) of 17 RU.

As to RHNVK [5mer-842], the Binding affinity (RU) came to 20 RU.

The molecule KFSMK [5mer-1132] came in with a Binding affinity (RU) of 19 RU.

For REEVR [5mer-1141], the Binding affinity (RU) is 26 RU.
